Reference: paper PMC4892509, “Binding of the Fkh1 Forkhead Associated Domain to a Phosphopeptide within the Mph1 DNA Helicase Regulates Mating-Type Switching in Budding Yeast” (PLoS Genetics, 2016)
Non-standard residues stand in square brackets, D forms with d. No end group written: not given here. *: point of attachment. 5FAM = O=C1OC2(c3ccc(O)cc3Oc3cc(O)ccc32)c2ccc(C(=O)*)cc21; pT = C[C@@H](OP(=O)(O)O)[C@H](N)C(=O)O; Ahx = NCCCCCC(=O)O

Key:
[1] = molecular target: Fkh1 (UniProt P40466); test: fluorescence anisotropy titration
[2] = molecular target: T1, Fkh1-6xHis (Saccharomyces cerevisiae, UniProt P40466); test: Fluorescence anisotropy binding of Mph1-derived peptides to recombinant Fkh1-6xHis
T1 construct: C-terminally His-tagged full length Fkh1 protein was expressed from a pET28b expression vector in Rosetta E. coli; made in house; host or cells: Rosetta E. coli (pET28b)
T1 sequence (P40466 1-484): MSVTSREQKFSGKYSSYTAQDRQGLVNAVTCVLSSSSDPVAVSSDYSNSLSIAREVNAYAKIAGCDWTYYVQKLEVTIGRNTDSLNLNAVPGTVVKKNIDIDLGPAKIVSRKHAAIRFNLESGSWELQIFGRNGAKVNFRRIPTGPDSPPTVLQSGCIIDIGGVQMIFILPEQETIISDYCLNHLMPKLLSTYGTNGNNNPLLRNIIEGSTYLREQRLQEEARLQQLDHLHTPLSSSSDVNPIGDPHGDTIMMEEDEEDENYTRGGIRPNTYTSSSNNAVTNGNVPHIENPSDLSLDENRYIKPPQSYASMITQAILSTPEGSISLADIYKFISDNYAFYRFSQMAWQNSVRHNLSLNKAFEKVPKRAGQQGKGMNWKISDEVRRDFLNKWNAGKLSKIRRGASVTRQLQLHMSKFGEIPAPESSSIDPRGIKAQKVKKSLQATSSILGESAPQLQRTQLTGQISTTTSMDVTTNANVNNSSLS
Method: To this end, recombinant Fkh1-6xHis was purified from E. coli and its ability to bind an 18-residue peptide representing Mph1(772–789) was assessed by fluorescence anisotropy (Fig 6).
(B) Peptide binding assay of Fkh1-6xHis and Mph1-derived peptides using fluorescence anisotropy. Binding reactions contained the indicated concentration of purified His-tagged Fkh1 and 3 nM 5-carboxyfluorescein labeled Mph1-derived peptide (5cf-aha-[sequence]) with threonines phosphorylated or unmodified, as indicated.
Peptides (constant final concentration of 3 nM) were mixed with titrations of purified Fkh1-6xHis protein in binding buffer (50 mM HEPES pH 7.0, 200 mM KCl, 10% glycerol, 5 mM BME, 1 mM EDTA, 1 mM EGTA, 5 mM MgOAc, 0.02% NP-40, protease inhibitors (Calbiotech)). Polarization at each concentration was measured in triplicates in 384-well polystyrene black microplates (Thermo Fisher Scientific #262260) by a Biotek Synergy H4 multimode plate reader (light source: xenon flash, offset from top: 7 mm, sensitivity: 60%, excitation: 485/20 nm, emission: 528/20 nm, both parallel and perpendicular, normal read speed). Fraction bound (Fb) at each concentration was calculated based on the corresponding polarization values (P): Fbc = (Pc—Pmin) / (Pmax—Pmin), where Pmin is the polarization value of the no-protein control and Pmax is the polarization value of the saturation value for that peptide. […]

[3] = molecular target: T2, Recombinant Fkh1-6xHis (S. cerevisiae, UniProt P40466 1-484); test: fluorescence polarisation; fluorescence anisotropy: 3 nM 5-carboxyfluorescein labeled peptide, titration of purified Fkh1-6xHis; 50 mM HEPES pH 7.0, 200 mM KCl, 10% glycerol, 5 mM BME, 1 mM EDTA, 1 mM EGTA, 5 mM MgOAc, 0.02% NP-40; Fb = [protein] / ([protein] + Kd); conditions: both partners purified
T2 construct: Fkh1, S. cerevisiae, full length; also called His-tagged Fkh1; purified Fkh1; source: Rosetta E. coli (pET28b), purified (nickel chromatography); not shown: 6xHis, C-terminal, kept
T2 sequence (looked up): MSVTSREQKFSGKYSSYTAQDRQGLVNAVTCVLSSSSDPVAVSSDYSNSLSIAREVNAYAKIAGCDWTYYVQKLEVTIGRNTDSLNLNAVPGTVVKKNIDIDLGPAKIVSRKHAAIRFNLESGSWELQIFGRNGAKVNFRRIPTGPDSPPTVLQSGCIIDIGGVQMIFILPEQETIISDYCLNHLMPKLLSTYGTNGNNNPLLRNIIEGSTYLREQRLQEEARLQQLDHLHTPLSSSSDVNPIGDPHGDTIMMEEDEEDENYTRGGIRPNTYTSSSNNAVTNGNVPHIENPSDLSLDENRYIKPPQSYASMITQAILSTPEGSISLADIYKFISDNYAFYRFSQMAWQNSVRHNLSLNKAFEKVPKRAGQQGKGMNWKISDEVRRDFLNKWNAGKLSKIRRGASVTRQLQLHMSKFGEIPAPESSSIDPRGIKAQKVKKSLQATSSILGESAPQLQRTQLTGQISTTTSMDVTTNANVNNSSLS

Mph1 772-789 (from UniProt P40562) pT776 pT785 peptide
binding against the reference ([1]; reference: pT776 peptide, sites T785): stronger
binding against the reference ([1]; reference: pT785 peptide, sites T776): stronger

CC(C)C[C@H](NC(=O)[C@H](CO)NC(=O)[C@H](CO)NC(=O)[C@H](CO)NC(=O)[C@H](C)NC(=O)[C@H](CCC(=O)O)NC(=O)[C@H](CCC(=O)O)NC(=O)[C@@H](NC(=O)[C@H](CO)NC(=O)[C@H](CC(=O)O)NC(=O)[C@H](CC(N)=O)NC(=O)[C@H](CCC(=O)O)NC(=O)CCCCCNC(=O)c1ccc2c(c1)C(=O)OC21c2ccc(O)cc2Oc2cc(O)ccc21)[C@@H](C)O)C(=O)N[C@@H](CCC(=O)O)C(=O)N[C@H](C(=O)N[C@@H](CCC(=O)O)C(=O)N[C@@H](CC(=O)O)C(=O)N[C@@H](CCC(=O)O)C(=O)N[C@@H](CCC(=O)O)C(=O)O)[C@@H](C)O [Non-phosphorylated]
fold reduced affinity for Fkh1 (non-phosphorylated vs peptide phosphorylated on both T776 and T785) ([2]; relative to peptide phosphorylated on both T776 and T785): > 100 -fold

Mph1 772-789 (from UniProt P40562) pT776 peptide
binding against the reference ([1]; reference: unphosphorylated peptide, sites T776): stronger

CC(C)C[C@H](NC(=O)[C@H](CO)NC(=O)[C@H](CO)NC(=O)[C@H](CO)NC(=O)[C@H](C)NC(=O)[C@H](CCC(=O)O)NC(=O)[C@H](CCC(=O)O)NC(=O)[C@@H](NC(=O)[C@H](CO)NC(=O)[C@H](CC(=O)O)NC(=O)[C@H](CC(N)=O)NC(=O)[C@H](CCC(=O)O)NC(=O)CCCCCNC(=O)c1ccc2c(c1)C(=O)OC21c2ccc(O)cc2Oc2cc(O)ccc21)[C@@H](C)OP(=O)(O)O)C(=O)N[C@@H](CCC(=O)O)C(=O)N[C@H](C(=O)N[C@@H](CCC(=O)O)C(=O)N[C@@H](CC(=O)O)C(=O)N[C@@H](CCC(=O)O)C(=O)N[C@@H](CCC(=O)O)C(=O)O)[C@@H](C)OP(=O)(O)O [pT776 pT785]
binding to purified Fkh1, result in words ([2]; 3 nM labeled peptide, pH 7.0): bound purified Fkh1 efficiently

Mph1 772-789 (from UniProt P40562) pT785 peptide
binding against the reference ([1]; reference: unphosphorylated peptide, sites T785): stronger

B1: Mph1(772–789) peptide phosphorylated on both T776 and T785 (peptide)
peptide: {5FAM-Ahx}-ENDS[pT]EEASSSLE[pT]EDEE
notes: Mph1, S. cerevisiae, 18-residue peptide representing Mph1(772–789); source: synthetic peptide
Kd [3]: 2.2 µM

B2: Mph1(772–789) peptide, non-phosphorylated (peptide)
peptide: {5FAM-Ahx}-ENDSTEEASSSLETEDEE
notes: as for B1
Kd [3]: 271 µM
